Measurements published in patent US6818612B2, “Use of parvovirus capsid particles in the inhibition of cell proliferation and migration” (priority 1998, dated 2004).

Experiments:
[1] = test system: human umbilical vein endothelial cells (HUVEC); assay: Endothelial cell proliferation assay (crystal violet, A540); format: cell-based
Method: To determine whether B19 parvovirus capsids can inhibit endothelial cell proliferation, assays were performed in which primary human umbilical vein endothelial cells, plated at a density of 1.5×10^4 cells per well in a 24 well plate, were incubated with B19 parvovirus capsids in the presence of 0.5% fetal calf serum+10.0 ng/ml basic fibroblast growth factor. The various B19 parvovirus capsid preparations (i.e., VP1/2 or capsids made with only VP1 or VP2) were added to each well on the following day and the cells with capsids were incubated for additional 72 hours. Cell proliferation was then determined by using a crystal violet dye assay. Accordingly, capsid treated cells were washed in PBS, fixed in 3.7% formaldehyde, and incubated with crystal violet. The dye was then removed by extensive washes with distilled water. The cell-associated crystal violet was solubilized with 10% acetic acid and quantified at absorbance 540 nm in an ELISA plate reader.
Thus, from left to right, the bars represent the absorbance at 540 nm with 0 μg/ml, 0.01 μg/ml, 0.1 μg/ml, 1.0 μg/ml, and 10.0 μg/ml. […] The standard deviation was within 10%.

[2] = test system: HUVEC cells; assay: Endothelial cell migration assay (modified Boyden chamber); format: cell-based, human
Method: The effect of B19 parvovirus capsid preparations on cell migration was also determined. The migration assays were performed using a modified Boyden chamber assay (Neuroprobe, Inc.). Basic fibroblast growth factor (40 ng/ml) was added to stimulate migration of the HUVEC cells through a collagen 1 coated 8 μm pore size millipore filter. Cells were incubated for 60 min with the various B19 parvovirus capsid preparations (i.e., VP1/2 or capsids made with only VP1 or VP2) prior to conducting the migration assay. To perform the migration assay, the Boyden chamber was incubated for 4.5 h at 37° C. in a 10% CO2 atmosphere. The filters were subsequently removed and were fixed in 3.7% formaldehyde. Cell migration was visualized by staining the filters overnight in Gill's Hematoxylin. The number of migrating cells were scored by counting stained cells on the migrating side of the filter per high power magnification field. (See FIG. 15).

[3] = test system: human fetal liver cells; assay: Colony formation assay (Stem cell CFU kit, 11 day) of fetal liver cells; format: cell-based; conditions: fetal liver cells
From the text: In a first set of experiments, it was discovered that B19 parvovirus capsids inhibit hematopoiesis and that these molecules could be used to reduce the overproduction of red blood cells, white blood cells, and blood platelets, as is experienced by patients suffering from hematological proliferative diseases, such as Polycytemia Vera. (See FIG. 1A). In a first set of experiments, fresh human fetal liver cells, umbilical cord blood cells, and bone marrow cells were contacted with recombinant B19 parvovirus capsids in a colony formation assay. The general features of a colony formation assay are depicted in FIG. 1B. The ability of the B19 parvovirus capsids to inhibit hematopoiesis was verified by the reduction of colony formation in the presence of the capsids, as compared to untreated control populations of cells. A more detailed description of these experiments is provided below.
To obtain fetal liver tissue, human fetuses 6-12 weeks of gestational age were obtained from legal abortions; the patients had volunteered to donate fetal tissue. Gestational age was estimated according to specific anatomical markers and is given as menstruational age. Abortions were performed with vacuum aspirations. Fetal liver was dissected under sterile conditions, placed in a sterile tube containing RPMI1640 and disintegrated by passage through a vinyl mesh to form a single cell suspension. Nucleated cells were then washed three times, counted and diluted in culture medium.
A commercial kit—the “Stem cell CFU kit” (GIBCO BRL, Life Technology Inc., NY, USA)—was used to perform the colony formation assays. The kit provides a semi-solid support that mimics the extracellular matrix produced by stromal cells. Other components included in the kit are: Iscove's modified Dulbecco's medium, modified fetal bovine serum, methylcellulose, 2-mercaptoethanol, conditioned medium and erythropoietin. The colonies that were formed in the assay were identified as BFU-E (burst forming unit-erythroid cells) with densely packed hemoglobonized cells, CFU-GM (colony forming units-granulocytes, macrophages) with arrangements of non-hemoglobinized cells, and CFU-GEMM (colony forming units-granulocytes, erythroid cells, macrophages, megakaryocytes) with hemoglobinized cells and small and large peripheral cells.
Recombinant B19 parvovirus empty capsid particles (Kajigaya et al., Proc Natl Acad Sci USA, 88:4646 (1991)) were prepared in a recombinant baculovirus-insect cell (Spodofera frugiperda) expression system. (Kajigaya et al., Proc Natl Acad Sci USA, 88:4646 (1991)). The isolated or purified capsids were diluted in buffer (20 mM Tris, 0.5M NaCl, pH 8.5) and 30 μL of each dilution was added to approximately 25×10^3 cells (50×10^3 for postnatal cells) in 100 μL of culture medium and incubated for 1 hour at 4° C. The mixtures were then transferred to incubation dishes and culture medium was added to a final volume of 0.5 ml per well. The cells were then incubated for 11 days in a humidified atmosphere at 5% CO2, and were scored for BFU-E, CFU-GM and CFU-GEMM derived colony formation.

B1: VP2 capsids: B19 parvovirus capsids having only VP2 (protein)
chain: MTSVNSAEASTGAGGGGSNSVKSMWSEGATFSANSVTCTFSRQFLIPYDPEHHYKVFSPAASSCHNASGKEAKVCTISPIMGYSTPWRYLDFNALNLFFSPLEFQHLIENYGSIAPDALTVTISEIAVKDVTDKTGGGVQVTDSTTGRLCMLVDHEYKYPYVLGQGQDTLAPELPIWVYFPPQYAYLTVGDVNTQGISGDSKKLASEESAFYVLEHSSFQLLGTGGTASMSYKFPPVPPENLEGCSQHFYEMYNPLYGSRLGVPDTLGGDPKFRSLTHEDHAIQPQNFMPGPLVNSVSTKEGDSSNTGAGKALTGLSTGTSQNTRISLRPGPVSQPYHHWDTDKYVTGINAISHGQTTYGNAEDKEYQQGVGRFPNEKEQLKQLQGLNMHTYFPNKGTQQYTDQIERPLMVGSVWNRRALHYESQLWSKIPNLDDSFKTQFAALGGWGLHQPPPQIFLKILPQSGPIGGIKSMGITTLVQYAVGIMTVTMTFKLGPRKATGRWNPQPGVYPPHAAGHLPYVLYDPTATDAKQHHRHGYEKPEELWTAKSRVHPL
inhibition of endothelial cell proliferation ([1]; 10.0 μg/ml, FIG. 14): significant inhibition | lowest concentration that efficiently inhibits endothelial cell proliferation ([1]; 72 hours, 10.0 ng/ml basic fibroblast growth factor, FIG. 14, 'as low as'): 1.0 µg/mL | inhibition of endothelial cell migration compared with other capsid preparations ([2]; FIG. 15): significantly more potent than that observed with either native capsids (VP1/2) or capsids having only VP1 | lowest concentration that effectively inhibited endothelial cell migration ([2]; basic fibroblast growth factor 40 ng/ml, FIG. 15, 'as low as'): 1 µg/mL | inhibition of colony formation ([3]; 1 μg/ml VP2 capsid, FIG. 4): Approximately 50% | colony formation, % of the control ([3]; 30 μg/mL, FIG. 5): less than 30 % of the control | inhibition of hematopoietic cell growth ([3]; 30 μg/ml, FIG. 3): significant inhibition | lowest concentration at which inhibition of colony formation of hematopoietic cells was seen ([3]; 11 day colony formation assay, 'as little as' / 'as low as'): 3 µg/mL | inhibition of colony formation of hematopoietic stem cells compared with VP1/2 capsids ([3]; FIG. 4): as effectively as VP1/2 capsids
